Measurements: patent US20060253917A1 (published 2006)

T1: Os006819-2510 aa 1-150 (Oryza sativa)
T1 construct: bait, Gal4 DBD fusion; also called PN20462; Hypothetical Protein 006819-2510, Similar to Senescence-Related Protein 5 from Hemerocallis Hybrid Cultivar
T1 chain: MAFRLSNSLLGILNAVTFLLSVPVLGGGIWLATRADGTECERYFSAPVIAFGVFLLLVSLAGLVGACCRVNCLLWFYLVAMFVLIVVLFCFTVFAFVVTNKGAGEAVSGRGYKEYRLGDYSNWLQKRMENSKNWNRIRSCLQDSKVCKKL

T2: OsSSS aa 97-263 (Oryza sativa, UniProt A2Y9M4 97-263)
T2 construct: prey, AD fusion; also called PN19701
T2 sequence: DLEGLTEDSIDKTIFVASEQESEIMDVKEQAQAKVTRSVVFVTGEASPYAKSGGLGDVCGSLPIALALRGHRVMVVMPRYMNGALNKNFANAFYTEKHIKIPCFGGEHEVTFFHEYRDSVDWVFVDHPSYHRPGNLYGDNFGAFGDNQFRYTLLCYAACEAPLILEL

T3: OsSSS aa 68-270 (Oryza sativa, UniProt A2Y9M4 68-270)
T3 construct: prey, AD fusion; also called PN19701; Soluble Starch Synthase
T3 sequence: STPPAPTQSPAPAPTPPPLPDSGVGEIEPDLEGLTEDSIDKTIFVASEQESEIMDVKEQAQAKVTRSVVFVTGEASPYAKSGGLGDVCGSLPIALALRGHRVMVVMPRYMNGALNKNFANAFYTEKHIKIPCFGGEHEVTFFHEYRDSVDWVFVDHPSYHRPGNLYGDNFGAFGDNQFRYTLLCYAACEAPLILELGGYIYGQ

T4: Os003118-3674 aa 75-149 (Oryza sativa, UniProt Q84VG0 75-148)
T4 construct: bait, Gal4 DBD fusion; also called PN20551
T4 sequence: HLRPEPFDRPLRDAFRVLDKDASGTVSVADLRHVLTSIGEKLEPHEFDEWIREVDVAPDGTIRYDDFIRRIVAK

T5: PN24061 aa 34-236 (Oryza sativa, UniProt A2XLV9 34-236)
T5 construct: prey, AD fusion; also called Auxin induced protein-like
T5 sequence: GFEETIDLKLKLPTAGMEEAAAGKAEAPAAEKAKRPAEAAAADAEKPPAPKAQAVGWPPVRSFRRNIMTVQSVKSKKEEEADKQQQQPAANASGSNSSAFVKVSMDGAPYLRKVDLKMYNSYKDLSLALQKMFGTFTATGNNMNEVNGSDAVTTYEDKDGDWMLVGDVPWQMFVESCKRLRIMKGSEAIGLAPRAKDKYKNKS

T6: OsERP (PN20696) aa 23-120 (Oryza sativa, UniProt Q0JBH9 23-120)
T6 construct: bait, Gal4 DBD fusion; also called Elicitor responsive protein
T6 sequence: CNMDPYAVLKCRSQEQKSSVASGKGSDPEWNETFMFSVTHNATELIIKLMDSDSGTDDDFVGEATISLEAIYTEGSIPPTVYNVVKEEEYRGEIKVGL

T7: PN20674 aa 64-263 (Oryza sativa, UniProt Q6AVA8 64-263)
T7 construct: prey, AD fusion; also called Pyruvate orthophosphate dikinase-like
T7 sequence: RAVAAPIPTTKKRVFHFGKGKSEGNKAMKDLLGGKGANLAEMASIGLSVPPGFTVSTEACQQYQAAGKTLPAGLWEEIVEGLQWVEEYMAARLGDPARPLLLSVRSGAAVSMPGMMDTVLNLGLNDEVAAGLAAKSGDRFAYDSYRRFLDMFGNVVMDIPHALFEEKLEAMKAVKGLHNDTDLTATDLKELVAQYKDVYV

T8: PN20674 aa 71-298 (Oryza sativa, UniProt Q6AVA8 71-298)
T8 construct: prey, AD fusion; also called Pyruvate orthophosphate dikinase-like
T8 sequence: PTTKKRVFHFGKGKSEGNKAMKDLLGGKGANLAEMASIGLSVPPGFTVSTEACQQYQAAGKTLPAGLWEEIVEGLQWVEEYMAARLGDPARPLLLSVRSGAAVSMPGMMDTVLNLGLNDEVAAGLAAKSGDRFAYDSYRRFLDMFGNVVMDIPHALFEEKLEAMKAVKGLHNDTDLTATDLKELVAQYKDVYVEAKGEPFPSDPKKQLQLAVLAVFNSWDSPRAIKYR

T9: OsCS aa 411-489 (Oryza sativa, UniProt A2Y0X2 411-489)
T9 construct: prey, AD fusion; also called PN19707; O. sativa Cellulose Synthase Catalytic Subunit, RSW1-Like
T9 sequence: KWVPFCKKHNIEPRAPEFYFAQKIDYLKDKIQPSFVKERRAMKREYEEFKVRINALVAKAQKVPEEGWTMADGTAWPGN

T10: OsCATA aa 332-433 (Oryza sativa, UniProt P0C549 332-433)
T10 construct: prey, AD fusion; also called PN20899; O. sativa Catalase A Isozyme
T10 sequence: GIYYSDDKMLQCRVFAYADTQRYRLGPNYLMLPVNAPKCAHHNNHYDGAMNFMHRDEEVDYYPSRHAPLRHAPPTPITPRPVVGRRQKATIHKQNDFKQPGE

T11: OsPN22154 aa 390-562 (Oryza sativa, UniProt Q6Z6L4 390-562)
T11 construct: prey, AD fusion; also called Novel Protein PN22154, Similar to A. thaliana Glutamyl Aminopeptidase
T11 sequence: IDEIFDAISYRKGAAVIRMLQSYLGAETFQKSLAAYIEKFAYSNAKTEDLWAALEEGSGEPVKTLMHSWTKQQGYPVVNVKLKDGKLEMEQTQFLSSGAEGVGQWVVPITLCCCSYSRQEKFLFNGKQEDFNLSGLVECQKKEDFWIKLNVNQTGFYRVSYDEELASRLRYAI

T12: OsCS aa 316-583 (Oryza sativa, UniProt A2Y0X2 316-583)
T12 construct: bait, Gal4 DBD fusion; also called PN19707
T12 sequence: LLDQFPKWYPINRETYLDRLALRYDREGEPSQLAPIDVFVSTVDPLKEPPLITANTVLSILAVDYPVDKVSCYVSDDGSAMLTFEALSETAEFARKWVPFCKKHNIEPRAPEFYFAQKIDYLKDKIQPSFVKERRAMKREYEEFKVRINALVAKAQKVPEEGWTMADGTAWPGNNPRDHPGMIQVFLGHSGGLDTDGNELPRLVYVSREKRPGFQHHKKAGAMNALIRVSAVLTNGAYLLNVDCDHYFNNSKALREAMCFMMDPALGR

T13: Os008938-3209 aa 53-259 (Oryza sativa, UniProt Q06967 53-259)
T13 construct: prey, AD fusion; also called PN20215; O. sativa Putative 14-3-3 Protein
T13 sequence: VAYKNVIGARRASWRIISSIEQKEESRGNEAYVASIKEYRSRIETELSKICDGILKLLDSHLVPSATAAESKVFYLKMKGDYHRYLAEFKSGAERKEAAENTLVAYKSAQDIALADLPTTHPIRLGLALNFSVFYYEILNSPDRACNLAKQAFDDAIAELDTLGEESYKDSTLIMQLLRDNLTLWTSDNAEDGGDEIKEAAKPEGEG

B1: OsPN29037 aa 73-165 (other)
chain: VVFDKDGVLEQIGEGKGYVDMSTVDAATSCKISEAIKQKGGAFVEAPVSGSKKPAEDGQLVILAAGDKVLYDDMVPAFDVLGKKSFFLGEIGN
notes: prey, AD fusion; also called Novel Protein PN29037
B2: OsCRTC aa 250-425 (other)
chain: PKEIPDPDAKKPEAGADEEDGEWTAPTIRNPEYKGPWKQKKIKNPNYQGKWKPPMIATPDFQDDPYIYAFDSLKSIGIELWQVKSGTLFDNILITDDAALAKTFAEETWAKHKDAEKAAFDEAEKKKEEEEAAKAGEDDDDLDDEDAEDEDKADEKADSDAEDGKDSDDEKHDEL
notes: bait, Gal4 DBD fusion; also called PN20544
B3: OsPN23878 aa 824-935 (other)
chain: SLARKHRAAIILQRNLKCWLARRYFVNIRKASVVIQSGIRGCLVRRCAGNVDLLNVLREFESKKEAEGDQILIKASFLAELQRRILKAEATVREKDEENEMLQQRLQQYENR
notes: prey, AD fusion
B4: PN20696 (OsERP) aa 54-144 (other)
chain: ETFMFSVTHNATELIIKLMDSDSGTDDDFVGEATISLEAIYTEGSIPPTVYNVVKEEEYRGEIKVGLTFTPEDDRDRGLSEEDIGGWKQSS
notes: prey, AD fusion; also called Elicitor responsive protein
B5: OsSGT1 aa 200-368 (other)
chain: QMLSVSIEVPGEEPYHFQPRLFSKIIPEKSRYQVLSTKVEIRLAKAEQITWTSLDYDKKPKAVPQKIIPPAESAQRPSYPSSKSKKDWDKLEAEVKKEEKEEKLEGDAALNKFFRDIYSDADEDMRRAMMKSFVESNGTVLSTNWKDVGSKKVEGSPPDGMELKKWEY
notes: bait, Gal4 DBD fusion; also called PN20285
B6: OsPN22824 aa 301-500 (other)
chain: DGEEVSCGIKAALAEKELEEEETKKMIEEESIDATAIDSGEKENPEVAELKAKLMAKDMEVAILTADNAELKKQVGEAAEAAKKAEEEAAAKASLVEQDLKERAAREARMGEQLRASEAARETLEAEMRRLRVQTEQWRKAAEAAPPVIGGDAHFVGHNGNGWGSPATMPDDCDDEGFGGKRKGAGIRMLGDLWKKKGSK
notes: prey, AD fusion
B7: PN31085 aa 378-553 (other)
chain: NGTISDSLGNLSELSDINLIGNNLTGHVPDSLTSLRLLQKLDLSGNDLTGPLPTFSPSVKVNVTGNLNFNGTAPGSAPSKDTPGSSSSRAPTLPGQGVLPENKKKRSAVVLATTIPVAVSVVALASVCAVLIFRKKRGSVPPNAASVVVHPRENSDPDNLVKIVMVNNDGNSSSTQ
notes: prey, AD fusion; also called Receptor-like protein kinase-like
B8: OsERP (PN20696) aa 50-145 (other)
chain: PEWNETFMFSVTHNATELIIKLMDSDSGTDDDFVGEATISLEAIYTEGSIPPTVYNVVKEEEYRGEIKVGLTFTPEDDRDRGLSEEDIGGWKQSS
notes: bait, Gal4 DBD fusion; also called Elicitor responsive protein
B9: OsCHIB1 aa 10-200 (enzyme)
chain: YIGAQFTGVRFSDVPVNPGLSFHFILAFAIDYFMATQSSKPAPANGVFAPYWDTANLSPAAVAAAKAAHPNLSVILALGGDTVQNTGVNATFAPTSSVDAWVRNAADSVSGLIDAYGLDGVDVDYEHFAAGVDTFVECIGRLLTELKARHPNIATSIAPFEHPVVQRYYQPLWRRYAGVIDYVNFQFYGYG
notes: bait, Gal4 DBD fusion; also called PN19651; O. sativa Chitinase, Class III
B10: OsCS aa 316-582 (other)
chain: LLDQFPKWYPINRETYLDRLALRYDREGEPSQLAPIDVFVSTVDPLKEPPLITANTVLSILAVDYPVDKVSCYVSDDGSAMLTFEALSETAEFARKWVPFCKKHNIEPRAPEFYFAQKIDYLKDKIQPSFVKERRAMKREYEEFKVRINALVAKAQKVPEEGWTMADGTAWPGNNPRDHPGMIQVFLGHSGGLDTDGNELPRLVYVSREKRPGFQHHKKAGAMNALIRVSAVLTNGAYLLNVDCDHYFNNSKALREAMCFMMDPALG
notes: prey, AD fusion; also called PN19707
B11: OsCAA90866 aa 100-250 (other)
chain: GEMTERVAQEDRIPVLKASQDHLKEFISICEALELISEDELEISRQKNLIPWQIEEHRRLHGSSAKRLQKQSSRIKERKERRRRHESSCLSAPIELGGDLLRMMEKEREGMVSYYLIGSIEGFDLLDMLKKEEEIVPAVKEGKRRMVMHLL
notes: bait, Gal4 DBD fusion; also called PN20311; O. sativa Chilling-Inducible Protein CAA90866

Columns and labels:
[1] = molecular target: T1, Os006819-2510 aa 1-150; assay: Y2H; input trait library
In short: (§1)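 Using an automated, high-throughput yeast two-hybrid assay provided by Myriad Genetics Inc. (Salt Lake City, Utah), protein-protein interactions were detected. Against either the input trait or the output trait rice prey library, a bait clone encoding a defined amino-acid fragment of a rice protein was screened. The encoding sequences of the prey clones that were retrieved were then compared against databases by BLAST to identify the interacting proteins.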

[2] = molecular target: T2, OsSSS aa 97-263; assay: Y2H; output trait library
In short: as §1

[3] = molecular target: T3, OsSSS aa 68-270; assay: Y2H; input trait library
In short: as §1

[4] = molecular target: T4, Os003118-3674 aa 75-149; assay: Y2H; output trait library
In short: as §1

[5] = molecular target: B5; assay: Y2H; input trait library
In short: as §1

[6] = molecular target: T5, PN24061 aa 34-236; assay: Y2H; output trait library
In short: (§2)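 Rice protein fragments, each defined by an amino-acid range, served as bait against rice prey clone libraries in an automated, high-throughput yeast two-hybrid screen supplied by Myriad Genetics Inc. Prey clones that interacted were retrieved from the output trait library. The sequences encoding the retrieved fragments were compared against databases by BLAST analysis to identify the full-length genes. Each value records whether an interaction was detected.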

[7] = molecular target: T14, OsRACD aa 1-198 (Oryza sativa, UniProt Q6EP31 1-197); assay: Y2H; input trait library
T14 construct: bait, Gal4 DBD fusion; also called PN19695
In short: as §1

[8] = molecular target: T6, OsERP (PN20696) aa 23-120; assay: Y2H; output trait library
In short: as §2

[9] = molecular target: T7, PN20674 aa 64-263; assay: Y2H; input trait library
In short: as §1

[10] = molecular target: T8, PN20674 aa 71-298; assay: Y2H; input trait library
In short: as §1

[11] = molecular target: T9, OsCS aa 411-489; assay: Y2H; input trait library
In short: as §1

[12] = molecular target: T10, OsCATA aa 332-433; assay: Y2H; input trait library
In short: as §1

[13] = molecular target: T11, OsPN22154 aa 390-562; assay: Y2H; input trait library
In short: as §1

[14] = molecular target: T12, OsCS aa 316-583; assay: Y2H; input trait library
In short: as §1

[15] = molecular target: T13, Os008938-3209 aa 53-259; assay: Y2H; input trait library
In short: as §1

T14 sequence (Q6EP31 whole entry, the tested form may be a part): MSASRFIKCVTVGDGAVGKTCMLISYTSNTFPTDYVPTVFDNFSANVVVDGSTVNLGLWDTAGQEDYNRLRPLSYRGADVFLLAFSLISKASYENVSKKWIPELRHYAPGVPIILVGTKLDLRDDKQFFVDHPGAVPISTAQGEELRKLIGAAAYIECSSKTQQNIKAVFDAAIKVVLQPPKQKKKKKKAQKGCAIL

## B1
[1]
  binding result: binds

## B2
[2]
  binding result: binds
[3]
  binding result: binds

## B3
[4]
  binding result: binds

## B4
[5]
  binding result: binds

## B5
[6]
  binding result: binds

## B6
[7]
  binding result: binds

## B7
[8]
  binding result: binds

## B8
[9]
  binding result: binds
[10]
  binding result: binds

## B9
[11]
  binding result: binds
[12]
  binding result: binds
[13]
  binding result: binds

## B10
[14]
  binding result: binds

## B11
[15]
  binding result: binds
